Experimental data from the supplement of paper PMC10126150.
± gives the standard deviation of the averaged measurements.

Tested on: ATP
Test: switch fluorescence ratio, 500 uM ATP over buffer (Cy3 cluster intensity, sum of 5 cycles each) (fold (ratio)); higher = stronger signal-on switching upon ATP binding; sequences stand for … in TCGTCGGCAGCGTCAGATGTGTATAAGAGACAGTTTTTTTTTTTTTTTTTTTTTTTTT…TC
Settings: aptamer strand: ATP DNA aptamer (quencher-CACCTGGGGGAGTATTGCGGAGGAAGG + anchor), 100 nM annealed; ATP concentration: 500 uM
Summary of the method: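 Between each of five buffer/ATP cycles, the flow-cell was stripped with NaOH and re-annealed. Each cycle imaged Cy3-labelled switching-strand clusters, annealed to 100 nM quencher-labelled ATP aptamer on a modified Illumina MiSeq flow-cell, first in selection buffer and then after 15 min with 500 uM ATP at 22 °C. The fluorescence ratio is summed target-cycle over summed buffer-cycle Cy3 intensity per cluster, averaged per switch-domain sequence, with clusters outside 100-1000 RFU excluded.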
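Further: ATP exposure 15 min at 22 °C before imaging.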

| Sequence | switch fluorescence ratio |
| --- | --- |
| ACGTTGCTGA | 1.02 ± 0.028 |
| ACGTTGTGAG | 0.969 ± 0.037 |
| ACGTTTACCA | 1.217 ± 0.0099 |
| ACGTTTCCCC | 1.09 ± 0.025 |
| ACGTTTTCGG | 0.9837 ± 0.0052 |
| ACGTTTTGAG | 1.0122 ± 0.00047 |
| ACTAAAAGGC | 1.0107 ± 3.2e-05 |
| ACTAAATAGT | 0.987 ± 0.013 |
| ACTAAGGATT | 1.02 ± 0.018 |
| ACTAAGGGCG | 1.09 ± 0.019 |
| ACTAAGGGGA | 1.03 ± 0.0058 |
| ACTAATAAGA | 1.01 ± 0.019 |
| ACTAATAAGG | 1.04 ± 0.029 |
| ACTAATGCGC | 1.05 ± 0.019 |
| ACTAGAACAT | 1.052 ± 0.0042 |
| ACTAGGAAAA | 0.997 ± 0.011 |
| ACTAGGGACA | 1.24 ± 0.028 |
| ACTAGGGGAC | 1.06 ± 0.085 |
| ACTAGGGGTT | 1.23 ± 0.34 |
| ACTAGGTGCG | 1.06 ± 0.045 |
| ACTAGTTTTC | 0.9611 ± 0.0091 |
| ACTATAAGAA | 1.03 ± 0.014 |
| ACTATAGGAC | 1.07 ± 0.017 |
| ACTATATTTT | 1.04 ± 0.0067 |
| ACTATCGGCA | 1.02 ± 0.029 |

| Sequence | switch fluorescence ratio |
| --- | --- |
| ACTATCTTTG | 0.9924 ± 0.0098 |
| ACTATGACGT | 1.04 ± 0.017 |
| ACTATGAGTT | 0.9975 ± 0.0073 |
| ACTATTCGT | 0.99 ± 0.026 |
| ACTATTTGTT | 1.04 ± 0.027 |
| ACTCAATCTG | 1.0397 ± 0.00024 |
| ACTCAGGAGT | 1.011 ± 0.0031 |
| ACTCCAGGAG | 1.06 ± 0.025 |
| ACTCGAGGTT | 1.05 ± 0.013 |
| ACTCGGGGAG | 1 ± 0.013 |
| ACTCGGTTGG | 1.03 ± 0.037 |
| ACTCGTAACT | 0.9931 ± 0.0057 |
| ACTCGTTAAA | 0.978 ± 0.014 |
| ACTCGTTGTT | 1.02 ± 0.024 |
| ACTCTACCGT | 1.29 ± 0.057 |
| ACTCTAGTTT | 1.048 ± 0.0027 |
| ACTCTTATAA | 1.048 ± 0.0059 |
| ACTGAAGCAT | 1.17 ± 0.021 |
| ACTGACTCA | 1.23 ± 0.048 |
| ACTGAGGATG | 1.06 ± 0.0063 |
| ACTGAGTTTA | 1.02 ± 0.019 |
| ACTGATGACG | 1.06 ± 0.078 |
| ACTGATGGAC | 1.06 ± 0.027 |
| ACTGATGGGT | 1 ± 0.013 |
| ACTGATTTAT | 1.01 ± 0.028 |

| Sequence | switch fluorescence ratio |
| --- | --- |
| ACTGCAAAAT | 1.127 ± 0.0017 |
| ACTGCTACGA | 1.36 ± 0.018 |
| ACTGGACACA | 1.22 ± 0.069 |
| ACTGGAGGAT | 1.05 ± 0.013 |
| ACTGGCAGTT | 1.01 ± 0.037 |
| ACTGGCTGTT | 1.03 ± 0.035 |
| ACTGGGATGG | 1.031 ± 0.0089 |
| ACTGGTATTG | 1.02 ± 0.025 |
| ACTGGTTAGT | 1 ± 0.045 |
| ACTGGTTTAG | 0.9975 ± 0.0095 |
| ACTGGTTTGG | 1.04 ± 0.063 |
| ACTGGTTTTT | 0.987 ± 0.036 |
| ACTGTACCCT | 1.22 ± 0.016 |
| ACTGTCATTA | 1.08 ± 0.019 |
| ACTGTCGTCT | 1.0405 ± 0.00033 |
| ACTGTGTACC | 1.04 ± 0.015 |
| ACTGTGTGGC | 0.992 ± 0.012 |
| ACTGTTAGCA | 1.061 ± 0.0046 |
| ACTGTTCCGA | 1.05 ± 0.054 |
| ACTGTTTCTC | 0.996 ± 0.022 |
| ACTGTTTTAT | 1.01 ± 0.038 |
| ACTTAAAATG | 1.06 ± 0.082 |
| ACTTAGAATA | 1.032 ± 0.0033 |
| ACTTAGTCTA | 1.023 ± 0.0066 |
| ACTTATAGGA | 1.03 ± 0.012 |

| Sequence | switch fluorescence ratio |
| --- | --- |
| ACTTATGGGA | 1.02 ± 0.019 |
| ACTTCAGATT | 0.995 ± 0.012 |
| ACTTCGAATA | 1.36 ± 0.07 |
| ACTTCTAGGC | 1.02 ± 0.058 |
| ACTTCTGGCT | 0.9717 ± 0.0054 |
| ACTTGATACG | 1.08 ± 0.063 |
| ACTTGCGCAG | 1.05 ± 0.043 |
| ACTTGGACTG | 1.03 ± 0.042 |
| ACTTGGCAAT | 4.347 ± 0.014 |
| ACTTGGGGGG | 0.994 ± 0.012 |
| ACTTGGTAT | 1 ± 0.07 |
| ACTTGTAGTA | 1.01 ± 0.012 |
| ACTTGTGGTC | 0.9952 ± 0.0084 |
| ACTTGTTCGT | 1.006 ± 0.0075 |
| ACTTTAGTTC | 1.01 ± 0.036 |
| ACTTTATCTA | 1.03 ± 0.061 |
| ACTTTATGCT | 1.01 ± 0.024 |
| ACTTTCTCAG | 1.077 ± 0.0049 |
| ACTTTGAA | 1.01 ± 0.037 |
| ACTTTGAGTG | 0.976 ± 0.015 |
| ACTTTGGGCA | 0.99606 ± 0.00098 |
| ACTTTGGGGG | 1.01 ± 0.042 |
| ACTTTGGTCT | 1.04 ± 0.051 |
| ACTTTGTCGG | 0.995 ± 0.038 |
| ACTTTTAAGG | 0.983 ± 0.024 |

| Sequence | switch fluorescence ratio |
| --- | --- |
| ACTTTTAGGT | 1.0193 ± 0.00024 |
| ACTTTTCGGC | 0.9915 ± 0.0073 |
| ACTTTTCGGG | 0.9921 ± 0.0056 |
| ACTTTTGAAA | 0.994 ± 0.014 |
| ACTTTTGGGG | 1.005 ± 0.0023 |
| ACTTTTGGGT | 0.9602 ± 0.0088 |
| ACTTTTTAGT | 0.986 ± 0.05 |
| ACTTTTTATA | 0.968 ± 0.082 |
| ACTTTTTGGG | 1.01 ± 0.065 |
| ACTTTTTTAG | 0.992 ± 0.019 |
| ACTTTTTTAT | 1.01 ± 0.018 |
| AGAAAAAAAG | 1.02 ± 0.03 |
| AGAAAAAAGC | 0.989 ± 0.015 |
| AGAAAAGGTG | 1.19 ± 0.13 |
| AGAAAAGTAC | 1.08 ± 0.076 |
| AGAAAAGTGG | 0.985 ± 0.019 |
| AGAAAAGTGT | 1.0276 ± 0.00047 |
| AGAAACCGTA | 1.1 ± 0.031 |
| AGAAACCGTT | 1.03 ± 0.021 |
| AGAAACGGGG | 1.08 ± 0.15 |
| AGAAAGGTTG | 0.984 ± 0.019 |
| AGAAATGAAT | 1.04 ± 0.024 |
| AGAAATTATA | 1.001 ± 0.0073 |
| AGAAATTGGT | 1.02 ± 0.029 |
| AGAAATTGTT | 0.999 ± 0.047 |

| Sequence | switch fluorescence ratio |
| --- | --- |
| AGAACTGGTT | 0.961 ± 0.034 |
| AGAAGAAGGG | 1.03 ± 0.017 |
| AGAAGAATTT | 1.02 ± 0.016 |
| AGAAGATCAG | 1.02 ± 0.015 |
| AGAAGATCTA | 0.9942 ± 0.0081 |
| AGAAGCCCAC | 1.09 ± 0.019 |
| AGAAGCGTGG | 1.01 ± 0.025 |
| AGAAGGCAAC | 1.015 ± 0.0017 |
| AGAAGGCTAG | 1.02 ± 0.05 |
| AGAAGGGCA | 0.983 ± 0.042 |
| AGAAGGTGCC | 1.05 ± 0.049 |
| AGAAGTACTA | 1.22 ± 0.036 |
| AGAAGTGGCG | 1.01 ± 0.03 |
| AGAAGTTTTG | 1.04 ± 0.054 |
| AGAATATTAA | 0.978 ± 0.013 |
| AGAATATTTT | 0.963 ± 0.011 |
| AGAATGGGAA | 1 ± 0.019 |
| AGAATGGGGA | 1.02 ± 0.0092 |
| AGAATGTTTT | 0.989 ± 0.033 |
| AGAATTAACT | 0.998 ± 0.025 |
| AGAATTATAT | 0.973 ± 0.023 |
| AGAATTGGGT | 0.9964 ± 0.0014 |
| AGACACGAAT | 0.9811 ± 0.0068 |
| AGACAGGGGT | 1.07 ± 0.098 |
| AGACAGGTAA | 1.01 ± 0.02 |

| Sequence | switch fluorescence ratio |
| --- | --- |
| AGACATATTT | 1 ± 0.027 |
| AGACATCTTT | 1.016 ± 0.0062 |
| AGACATGTTT | 0.981 ± 0.014 |
| AGACGAAAGA | 1.02 ± 0.027 |
| AGACGATTGT | 0.985 ± 0.018 |
| AGACGCAGGG | 1.034 ± 0.0053 |
| AGACGCAGTG | 0.9834 ± 0.0038 |
| AGACGCGGTG | 1.044 ± 0.0038 |
| AGACGGGATT | 1.03 ± 0.021 |
| AGACGGGCAC | 1.074 ± 0.0063 |
| AGACGGGGCC | 1.01 ± 0.018 |
| AGACGGGGTC | 0.9848 ± 0.0021 |
| AGACGGGTGC | 1.08 ± 0.074 |
| AGACGGTATG | 1.02 ± 0.0061 |
| AGACGGTTTG | 1.01 ± 0.017 |
| AGACGTTTTT | 1 ± 0.033 |
| AGACTACTAC | 1.12 ± 0.025 |
| AGACTAGCCA | 0.981 ± 0.081 |
| AGACTCTCG | 1.02 ± 0.098 |
| AGACTCTGGT | 0.969 ± 0.015 |
| AGACTGCCTG | 0.971 ± 0.077 |
| AGACTGGGGC | 1.03 ± 0.03 |
| AGACTTATTT | 1.01 ± 0.013 |
| AGAGAACTTG | 0.983 ± 0.1 |
| AGAGAAGAGA | 0.998 ± 0.023 |

| Sequence | switch fluorescence ratio |
| --- | --- |
| AGAGAATACG | 1 ± 0.031 |
| AGAGACAGCT | 0.994 ± 0.05 |
| AGAGACGGCA | 1.01 ± 0.032 |
| AGAGAGATGG | 0.977 ± 0.018 |
| AGAGAGCAAG | 1.07 ± 0.043 |
| AGAGATAGGG | 1.01 ± 0.019 |
| AGAGATGAGA | 1.02 ± 0.031 |
| AGAGATGAGG | 0.974 ± 0.042 |
| AGAGCATGAT | 1.03 ± 0.024 |
| AGAGCGGGCT | 1.04 ± 0.036 |
| AGAGCGTGGT | 0.999 ± 0.023 |
| AGAGGAGTCT | 0.9706 ± 0.0019 |
| AGAGGAGTGT | 0.943 ± 0.0098 |
| AGAGGCGAGG | 0.9913 ± 0.0013 |
| AGAGGCTCAG | 1.08 ± 0.069 |
| AGAGGCTTTT | 1.02 ± 0.046 |
| AGAGGGATGG | 0.9919 ± 0.0076 |
| AGAGGGGAAG | 1.005 ± 0.0087 |
| AGAGGGGTCT | 1.02 ± 0.043 |
| AGAGGGTTGG | 0.986 ± 0.022 |
| AGAGGGTTGT | 0.992 ± 0.031 |
| AGAGGGTTTG | 0.998 ± 0.025 |
| AGAGGTATCT | 0.9872 ± 0.0046 |
| AGAGGTCTGT | 0.986 ± 0.0056 |
| AGAGGTCTTG | 0.979 ± 0.029 |
